Assay results: article PMC3516504

Key:
[1] = target: Dansylated calmodulin, Ca2+-bound (Ca2+-dCaM) (UniProt P0DP23); assay: other fluorescence titration; dansyl fluorescence (excitation 340 nm, intensity at 485 nm); ~80 µM Lf titrated into 1.4 µM dansylated CaM; 50 mM Tris pH 7.5, 1 mM CaCl2, 100 mM KCl (also run at 50 and 150 mM KCl); one site model, CaLigator; triplicate
[2] = target: Calmodulin, Ca2+-bound (Ca2+-CaM) (UniProt P0DP23); assay: native gel or EMSA; non-denaturing PAGE band shift; increasing amounts of Lf incubated with a constant amount of Ca2+-CaM; running buffer 0.1 mM CaCl2, samples 0.5 mM CaCl2, no urea
[3] = target: Calmodulin, Ca2+-bound (Ca2+-CaM) (UniProt P0DP23); assay: NMR titration; TROSY-HSQC of 2H/15N-labelled Ca2+-CaM titrated with unlabelled apo-Lf (titration data not shown); 20 mM Bis-Tris pH 6.8, 150 mM KCl, 4 mM CaCl2, 37 °C

Substance | Kd [1] [µM] | stoichiometry N [2] | stoichiometry N [3]
Human lactoferrin, iron-free (apo-Lf) (natural protein) | 3.5 | 1 | 1
Human lactoferrin, iron-saturated (Fe3+-Lf) (natural protein) | 2.1 | 1 | 
